Source: patent publication US20210380703A1

Target: human Fc (human)
Assay: ELISA, negative control

optical density	Binder
0.181 OD	375_H04 (antibody, V domains shown) VH: EVQLLESGGGLVQPGGSLRLSCAASGFTFSSYGMHWVRQAPGKGLEWVAGINYNSGYTGYADSVKGRFTISRDNSKNTLYLQMNSLRAEDTAVYYCARAATWHDTHLDYWGQGTLVTVSS VL: DIQMTQSPSSLSASVGDRVTITCRASQSILSYLNWYQQKPGKAPKLVIYAATSRASGVPSRFSGSGSGTDFTLTISSLQPEDFATYYCQQSYSNPLTFGGGTKVEIK
0.319 OD	366_A04 (antibody, V domains shown) VH: EVQLLESGGGLVQPGGSLRLSCAASGFTFSSYGMNWVRQAPGKGLEWVAGINYNGGYTSYADSVKGRFTISRDNSKNTLYLQMNSLRAEDTAVYYCARAANWHDTALDYWGQGTLVTVSS VL: DIQMTQSPSSLSASVGDRVTITCRASQSILTYLNWYQQKPGKAPKLVIYAATSLASGVPSRFSGSGSGTDFTLTISSLQPEDFATYYCQQSDDSPLTFGGGTKVEIK
0.347 OD	365_F03 (antibody, V domains shown) VH: EVQLLESGGGLVQPGGSLRLSCAASGFTFDSYSMNWVRQAPGKGLEWVSSINYNGGYTSYADSVKGRFTISRDNSKNTLYLQMNSLRAEDTAVYYCARGANWHDTHLDYWGQGTLVTVSS VL: DIQMTQSPSSLSASVGDRVTITCRASQSILSYLNWYQQKPGKAPKLLIYAATSRASGVPSRFSGSGSGTDFTLTISSLQPEDFATYYCQQSYDNPLTFGGGTKVEIK
0.326 OD	365_F02 (antibody, V domains shown) VH: EVQLLESGGGLVQPGGSLRLSCAASGFTFSSYSMNWVRQAPGKGLEWVSGINYNGGYKGYADSVKGRFTISRDNSKNTLYLQMNSLRAEDTAVYYCARGANWHDTHLDYWGQGTLVTVSS VL: DIQMTQSPSSLSASVGDRVTITCRASQSILTYVNWYQQKPGKAPKLLIYAATSRHSGVPSRFSGSGSGTDFTLTISSLQPEDFATYYCQQSYDTPLTFGGGTKVEIK
0.271 OD	365_C05 (antibody, V domains shown) VH: EVQLLESGGGLVQPGGSLRLSCAASGFTFSDYSMNWVRQAPGKGLEWVSGINYNGGYKGYADSVKGRFTISRDNSKNTLYLQMNSLRAEDTAVYYCARGANWHDTHLDYWGQGTLVTVSS VL: DIQMTQSPSSLSASVGDRVTITCRASQSILTYLNWYQQKPGKAPKLLIYAATSRHSGVPSRFSGSGSGTDFTLTISSLQPEDFATYYCQQSYNSPLTFGGGTKVEIK
0.338 OD	365_E12 (antibody, V domains shown) VH: EVQLLESGGGLVQPGGSLRLSCAASGFTFSDYGMNWVRQAPGKGLEWVSNINYNGGYTGYADSVKGRFTISRDNSKNTLYLQMNSLRAEDTAVYYCARGANWHDTALDYWGQGTLVTVSS VL: DIQMTQSPSSLSASVGDRVTITCRASQSILTYLNWYQQKPGKAPKLLIYAATSRASGVPSRFSGSGSGTDFTLTISSLQPEDFATYYCQQSYETPLTFGGGTKVEIK
0.25 OD	376_F09 (antibody, V domains shown) VH: EVQLLESGGGLVQPGGSLRLSCAASGFTFDSYSMHWVRQAPGKGLEWVSSINYNGGYKSYADSVKGRFTISRDNSKNTLYLQMNSLRAEDTAVYYCARAATWHDTHLDYWGQGTLVTVSS VL: DIQMTQSPSSLSASVGDRVTITCRASQSILTYVNWYQQKPGKAPKLLIYAVTSRASGVPSRFSGSGSGTDFTLTISSLQPEDFATYYCQQSYDTPLTFGGGTKVEIK
0.232 OD	376_D08 (antibody, V domains shown) VH: EVQLLESGGGLVQPGGSLRLSCAASGFTFDSYGMNWVRQAPGKGLEWVANINYNSGYKSYADSVKGRFTISRDNSKNTLYLQMNSLRAEDTAVYYCARAATWHDTALDYWGQGTLVTVSS VL: DIQMTQSPSSLSASVGDRVTITCRASQSILTYLNWYQQKPGKAPKLVIYYANNRPSGVPSRFSGSGSGTDFTLTISSLQPEDFATYYCQQSYSNPLTFGGGTKVEIK
